Assay [1] concerns the target T1, receptor-binding domain (RBD) of the spike (S) protein of SARS-CoV-2 (SARS-CoV-2, UniProt P0DTC2 319-541).
T1 construct: also called soluble RBD
The experiment in a line: ELISA, coated RBD [cont'd]. On the technique in general: An ELISA detects its analyte on a solid surface through an enzyme-linked reagent.

The target of assay [2] is S1 (truncated S1 subunit). The experiment in a line: ELISA, coated truncated S1 [cont'd].
The target in assay [3] is S1 (truncated S1 subunit). The experiment in a line: ELISA, coated truncated S1.
The target of assay [4] is T1, receptor-binding domain (RBD) of the …. The experiment in a line: ELISA, coated RBD.

Substitutions are numbered along the chain they refer to.

A word on the EC50: it is the concentration needed to bring the measured effect to its halfway point.

B1: HbnC4t1p1_D5 (antibody, V domains shown)
VH: EVQLVESGGGLVQPGRSLRLSCAASGFTFDDYAMHWVRQAPGKGLEWVSGISWNSGSIGYADSVKGRFTISRDNAKNSLYLQMNSLRAEDTGLYYCAKDINYDSGGYHKNYFDYWGQGTLVTVSS
VL: DIQMTQSPSSLSASVGDRATITCRASQSISSYLNWYQEKPGKAPKLLIYAASSLQSGVPSRFSGSGSGTDFTLTISSLQPEDFATYYCQQSYSNPLTFGGGTKVEIK
Consider B1, for which the 50% effective concentration (EC50) in assay [1] and in assay [2] was below 1000 µg/mL in each case.

B2: CnC2t1p1_D6 (antibody, V domains shown)
VH: EVQLVESGGGLVQPGRSLRLSCTASGFTFGDYAMSWFRQAPGKGLEWVGFIRSKAYGGTTEYAASVKGRFTISRDDSKSIAYLQMNSLKTEDTAVYYCTRVRRLWFGSYYYGMDVWGQGTTVTVSS
VL: not shown
With B2, the half-maximal effective concentration (EC50) in assay [3] and in assay [4] was below 100 µg/mL each time.

B3: CnC2t1p1_B4 (antibody, V domains shown)
VH: QVQLVQSGAEVKKPGASVKVSCKASGYTFTSYGISWVRQAPGQGLEWMGWISAYNGNTNYAQKLQGRVTMTTDTSTSTAYMELRSLRSDDTAVYYCARDGELLGWFDPWGQGTLVTVSS
VL: QSALTQPASVSGSPGQSITISCTGTSSDVGSYNLVSWYQQHPGKAPKLMIYEGSKRPSGVSNRFSGSKSGNTASLTISGLQAEDEADYYCCSYAGSSTWVFGGGTKLTVL
As to B3, the EC50 in assay [3] and in assay [4] was below 100 µg/mL each time.

B4: CnC2t1p1_B10 (antibody, V domains shown)
VH: QVQLVQSGAEVKKPGSSVKVSCKASGGTFSSYAISWVRQAPGQGLEWMGGIIPIFGTANYAQKFQGRVTITADKSTSTAYMELSSLRSEDTAVYYCARVSGYDSSGYWGDYWGQGTLVTVSS
VL: EIVLTQSPATLSLSPGERATLSCRASQSVSSYLAWYQQKPGQAPRLLIYDASNRATGIPARFSGSGSGTDFTLTISSLEPEDFAVYYCQQRSNWPPALTFGGGTKVEIK
Turning to B4, the concentration for a half-maximal effect (EC50) in assay [3] and in assay [4] was below 100 µg/mL in each case.

B5: HbnC3t1p1_F4 (antibody, V domains shown)
VH: QVQLVESGGGVVQPGRSLRLSCAATGFTFRRYGMHWVRQAPGKGLEWVAGILFDGSNKYYVDSVKGRFTISRDSSRNTLYLQLNSLRREDTAVYYCAKGGDYEWELLESWGQGTLVTVSS
VL: DIQMTQSPSTVSASVGDRVTITCRASQSIDNWLAWYQEKPGKAPKVLIYKASSLESGVPSRFSGRGSGTEFTLTISSLQPGDFATYYCQHYHSFPLTFGGGTKVDIK
In the case of B5, the EC50 is below 1000 µg/mL in assay [1] and below 100 µg/mL in assay [2].

B6: HbnC3t1p1_G4 (antibody, V domains shown)
VH: EVQLVESGGGLVQPGGSLRLSCAASGFTVSSNYMSWVRQAPGKGLEWVSVIYSGGSTFYADSVKGRFTISRDNSKNTLYLQMNSLRAEDTAVYYCARDFGDFFFDYWGQGTLVTVSS
VL: EIVLTQSPGTLSLSPGERATLSCRASQSVSSYLAWYQQKPGQAPRLLIYGVSSRATGIPDRFSGSGSGTDFTLTISRLEPEDFAVYYCQQYGSSPRTFGQGTKVEIK
With B6, the concentration for a half-maximal effect (EC50) in assay [1] and in assay [2] was below 100 µg/mL each time.

B7: HbnC3t1p2_B10 (antibody, V domains shown)
VH: B6 VH with T28I, F99Y, F102Y
VL: B6 VL with Y49S, V51A, T56A, S76N, V104L
As for B7, the EC50 in assay [1] and in assay [2] was below 100 µg/mL throughout.

B8: HbnC2t1p2_D9 (antibody, V domains shown)
VH: QVQLVESGGGVVQPGRSLRLSCAASGFTFSSYGMHWVRQAPGKGLEWVAVIWYDGRNKYYVDSVKGRFTISRDNSKNTLYLQISSLRAEDTAVYYCARAARRPVVTDTMAYYMDVWGKGTTVTVSS
VL: EIVLTQSPATLSLSPGERATLSCRASLSLSSYLAWYQQKPGQAPRLLIYDASNRATGIPARFSGSGSGTDFTLTISSLEPEDFAVYYCQQRSNWPPTWTFGQGTKAEIKR
Regarding B8, the EC50 in assay [1] and in assay [2] was below 1000 µg/mL in each case.

B9: HbnC3t1p1_C6 (antibody, V domains shown)
VH: QMQLVQSGPEVKKPGTSVKVSCKASGFTFTSSAVQWVRQARGQRLEWIGWIVVGSGNTNYAQKFQERVTITRDMSTSTAYMELSSLRSEDTAVYYCAAPHCSSTICYDGFDIWGQGTMVTVSS
VL: not shown
On to B9, for which the EC50 in assay [1] and in assay [2] was below 100 µg/mL each time.

These data come from US20210371503A1 (UNIVERSITY OF COLOGNE, published 2021).
